Test results from the nanobody polyreactivity screen of Harvey et al. (2022).

Test: yeast display, Sf9 membrane polyspecificity reagent, FACS + sequencing; frameworks hold sequencing errors
Method in brief: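 Sorting gates, low and high (top ~1%), were placed on anti-HA fluorescence to track expression and on streptavidin fluorescence to track reagent binding. A clone's polyreactivity label is taken from the gate it came out of. The reagent was 10% biotinylated, detergent-solubilized Sf9 membrane, applied for 1 hour at 4 °C to galactose-induced yeast display cells.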

Sequence	polyreactivity (PSR sort gate)
QVQLVESGVGLVQAGGSLRLSCAPSGFTFGRYAMGWYRQAPGKEREFVASISRSGGSTNYADSVKGRFTISRDNAKNTVYLQMNSLKPEDTAVYYCARDSWLHYRWGYDYWGQGTQVTVSS	high polyreactivity
QVQLVESGVGLVQAGGSLRLSCAASGRTFAYYAMGWNRQAPWKERELVARITSDGSTYYADSVKGRFTISRDNAKNTVYLQMNSLIPEDTAVYYCNARWRYKWKYDHWGQGTQVTVSS	low polyreactivity
QVQLVESGGGLVQAGGSLRLSCAASGLIFSYYAMGWYRQAPGKEMELVAAITSDDSTYYADSVKGRFTISRDNAKNTVYLQINSLKPEDTAVYYCAARYTMYDTGESSRTYTGFNYWGQGTQVTVSS	low polyreactivity
QVQLVESGGGLVQAGGSLRLSCAASGSLFRYYAMGWYRQAPGTERELVAAITGRGGSTYYADSVKGRFTISRDNAKNTVYLQMNSLKPEDTAVYYCADYIDANVHRFDYWGQGTQVTVSS	low polyreactivity
QVQLVESGGGLVQAGGSLRLSCAASGRTFTGYAMGWYRQAPGKERELVAGISRRGGSTNYADSVKGRFTISRDNSKNTVYLQMNSLKQEDPAVYYCKKRYSLWDEDYWGQGTQVTVSS	high polyreactivity
QVQLVESGGGLVQAGGSLRLSCAASGISIRSYAMGWYRQAPGKERELVAAIRSGGSTSYADSVKGRFTISRDNAKNTVYLLMNSLKPEDTAVYYCAAGGYVPLPDITFWKFGYWGQGTQVNVSS	low polyreactivity
QVQLVESGGGLVQAGGSLRLSCAASGSTCYSNAMGWYRQAPGNERELVAGISGSGGSTYYADSVKGRFTISRDNAKNTVYLHMNSLKPEDTAVYYCNARKTRSYFRFDSWGQGTQVTVSS	low polyreactivity
QVQLVESGGGLVQAGGSLRLSCAASGFIFRYYTMGWYRQAPRKERELVASITSGGSTYYADSVKGRFTSSRDNAKNTVYLQMNCLKPEDTAVYSCAKHRDVLWRYKYWGQGTQVTVSS	high polyreactivity
QVQLVESGGGLVQAGGSLRLICAASGIIFVGYAMGWYRQAPGKERELVAAIDGTGDSTYYADSVKGRFTISRDNAKNTVYLQMNSLKPEDTAVYYCDAEYDYRWWYGYDYWGQATQVTVSS	high polyreactivity
QVHLVESGGGLVQAGGSLRLSCAASGRIFSSNAMGWYRQAPGKERELVAAISWIVGRTYYADSVKGRFTISRDNAKNTVYLQMNRLKPEDTAVYYCAKGSYYGRKRGWGYYYWGQGTQVTVSS	high polyreactivity
QVQLVESGGGLVQAGGSLRLSCAASGGTFRYYTMGWYRQAPGKERELVASISGGGRTYYADSVKGRFTISRDNAKITVYLQMNSLKPEDTAVYYCNARNRVYYTLSGYGYWGQGTQVTVSS	high polyreactivity
QLQLVESAGGLVQAGGSLRLRCAASGSTFSSYAMGWYRQAPWKERELVADITSSGGSTYYADSVKGRFTISRDNAKNSVYLQMNSLTPEDTAVYYCAADDVIFWLYYYWGQGTQVTVSS	low polyreactivity
QVQLVESGGGLVQAGGSLRLSCAASGFTFAGNAMGWYRQAPGKERELVAAISRRGGSTYYADSVKGRFTISRDNAKNTVYLQMNSLKPEDTAVYYCAAVYPYDYDYWGQGTQVTVSS	high polyreactivity
QVQLVESGGGLVQAGGSLRLSCAASGSTFHPNAMGWYRQAPVKERELVAAISRGGSTNYADSVKGRFTISRDNAKNTVYLQMISLKPEDSAVYYCAKDFFGISSDPVVMDYWGQGTQVTVSS	low polyreactivity
QVQLVESGGGLVQAGGSLRLSCAASGSNLPYYAMGWYRQAPVKERELVAAISYSGGSTYYADSVKGRFTISRDNAKNPVFLQMYSLKPEVTAVYDCNAVVRSPAHGFWGQCTQVTVSS	high polyreactivity
QVQLVESGGGLVQAGGSLRLTCAASGGIFYKYAKGWYRQAPGKEMELVAAITGRGGSTNYADSVKVRFTISRDNAKNTVYLQMNSLKPEDTAVYYCAARYTPTWSYGYWGQGTQVTVSS	low polyreactivity
QVQSVESAGVLVQAGGSLRLSCAASGFTFTWYAMGWYRKAPGKERELVATISRSGGRTYYADSVKGRFTISRDNAKNTVYLQMNSLKPEDTAVYYCAADTRNSPRYDYWGQGTQVTVSS	high polyreactivity
QVQHVESGGGLVQAGGSLRLSSAASGFIFILYAMGWYTQAPGKERELVAAISSCGTRTYYADSVKGRFTISRDNAKNTVYLQMISLKPEDTGVYYCNTAWRDYVARLGGVGYDYWGQGTQVTVSS	high polyreactivity
QVQLVESGGGVVQAGGSLRLSCAASGFIYRWNAMGLNRQAPGKERELVAAMSARGGSTYDADSVKGRFTIARDNAKNTVYLPMNSLKPEDTAVYYCARAKRVHTEYDYWGQGTQVTVSS	high polyreactivity
QVQLVESGGGLVQAGGSLRISCAASGYTFGKNAMGWYRQAPGKERELVAGISSRGGSTYYADSVKGRFTISRDNAKNTLYLQMNSLKPEDTAVYYCAAVAYTGGPRKLGFNYWGQGTQVTVSS	high polyreactivity
QVQLVESGGGLVQAGGSLRLSCAASGFTFYGYAMGWYRQAPGKERELVAAITSGGITNYADSVKGRFTISRDNAKNTVYLQMNSLKPEDTAVYYCNVKRRVSGYYGYKYYYWGQGTQVTVSS	high polyreactivity
QVQLVESGGGLLQAGGSLRLSCAASGSIFQYKAMGWYRQAPGKERELVAAINGGGSTYYADSVKGRFTISRDNEKNTVYLQMNSLKPEYTAVYYCAADGGAYYYRGPGKFGIEDSWGQGTQVTVSS	low polyreactivity

Sequence	polyreactivity (PSR sort gate)
QVQLVESGGGLVQAGGSLRLSSAASGRTFDAYAMGWNRQAPGKERELVAAISGRGGSTTYADSVKGRFTISRDNAKNTVYLQMNSLKPEDTAVYYCAARYPPRFGVVRGYSRSGYWGQGTQVTVSS	high polyreactivity
QVQLVESGGGLVQAGGSLLLSCAASGRTFTRYAMGWYRQAPGKERELVASITNGGGTYYADSVKGRFTMSRDNAKNTVYLQMNSLKPEDTAVYYCAKAERVTSHLYYSWGQGTQVTVSS	low polyreactivity
QVQLVESGGGLVQAGGSLRLTCAASGRILDRYVMGWYRQAPGKERELVAAISQSGRGTYYADSVKGRFTISRDNAKNTVYLQMNSLKPEVTAVYYCAARGTGYHGYGYWGQGSQVTVSS	high polyreactivity
QVQLVESGGGLVQAGASLRLSCAASGSTFHSYAMGWYRQAPGKERELVAAISTSGGSTYYADSVKGRFTISRDNAKNTVYLQMNSLKPEDTAVYYCAAYSISSRMNYWGQGTQVTVSS	high polyreactivity
QVQLVESGGGLVQAGGSLRLSCAASGFIFRRYAMGWYRQAPGKERELVAAISSGGRTYYADSVKGRFTISRDNAKNTVYLQMNSLKPEDTAVYYCAAYSPYLRSWYDYWGQGTQVTVSS	high polyreactivity
QVQLVESGGGLVQAGGSLRLSCAASGRTFFVYAMGWYRQAPGKERELVAAISRGGRTYYADSVKGRFTISRDNAKNTVYLQMNSLKPEDTAVYYCAAESWYQQGDYWGQGTQVTVSS	low polyreactivity
QVQLQESGGSPVQAGGGLRLSCAASGYISVGSVMGWYRQAPSKERELVASIDQGANTNYADSVKGRFTISRDNAKNNVYLQMNSLKPEDTAVYYCATETTYILNYWGQGTQVTVSS	low polyreactivity
QVQLVESGGGLVQAGGSLRLSCAASGRTFYSYAMGWYRQAPGKERELVAAISWNGGSTYYADSVKGRFTISRDNAKNTVYLQMNSLKPEDTAVYYCAAVPLRNRWPNSWPALDYWGQGTQVTVSS	high polyreactivity
QVQLVESGGGLVQAGGSLRLSCAATGNIFTPYTMGWYRQAPGKERELVASINNAGTTKYADSVKGRFTISRDNAKTTVYLQMNSLKPEDTAVYYCAAQRRHALSSYPKHYYWGQGTQVTVSS	low polyreactivity
QVQLVESGGGIVQAGGSLRLSCAASGRTLSKNAMGWYRQAPGKERELVATISSVGRTNYADSVKGRFTISRDNAKNTVYLQMNSLKPEDTAVYNCAARRFRGSYYWGQGTQVTVSS	high polyreactivity
QVQLVESGGGLVQAGGSLRLSCAASGRTFYAYAMGWYRQAPGKERELVASISDRGGSTYYADSVKGRFTISRDNAKNTVYVQMNSLKPEDTAVYYCAAEYRTQRWFGSWGQGTQVTVSS	high polyreactivity
QVQVVESGGGLVQAGGSLRLSCAASGRTFGVYAMGWSRQAPGKERELVAVINRSGGSTYYADSVKGRFTISRDNAKYTVYLQMNSLNPEDTAVYSCDKASAYSAYDDHDDYWGHGTQVTVSS	high polyreactivity
QVQLVESGGGLVQAGGSLRLSCAASGIIFYDYAMGWSRQAPGKERELVATITRGGGTKYADSVKGRFTISRDNAKNTVYLQMNSLKPEDTAVYYCAADSHGVYEGDYWGQGTQVTVSS	low polyreactivity
QVHLQESGGGLVQAGGSLRLSCEASGSISRYYDMVWYRQAPGKELEFVAGISGGAITYYADSVKGRFTISRDNAKNTVYLQMNSLKPEDTAVYYCAADTGVYQYHSYWGQGTQVTVSS	low polyreactivity
QVQIVESGGGLVQAGGSLRLSCAASGRIFDGNALGWYRQAPGKERELVAAISRIGGTYYADSVKGRFTISRDNAKNTVYLQMNRLKPEDTAVYYCAADPSSVGYHVEYDYWGQGTQVTVSS	low polyreactivity
QVQLVESGGGLVQAGGSLRLSSAASGSIFRYNAMGWYRQAPGKERELFAAISYRGGRTYYADSVKGRFTISRDNAKNTVYLQMNSLKPEDTAVYYCNADSIYSARGWLYGYWGQGTQVTVSS	low polyreactivity
QVQLVESGGGLVQAGGSLRLSCASSGRTFFQYAMGWYRQAPGKERELVAAIRWSDSTYYADSVKGRFTISRDNAKNTVYLQMNSLKPEDTAVYYCAAPRVSQYSTKKYDYWGQGTQVTVSS	low polyreactivity
QVQLVESGGGLVQAGGSLRLSCAASGFIFEWYDMGWYRQAPGKERELVASISWSGGSTYYADSVKGRFTISRDNAKNTVYLQMNSLKPEDTAVYYCNTPSYTYWHWYDYWGQGTQVTVSS	high polyreactivity
QVQLVESGGGLVQAGGSLRLSCAASGRIFYVYAMGWYRQAPGKERELVADITRDGNTNYADSVKGRFTISRDNAKNTVYLQMNSLKPEDTAVYYCAAGGYPGTTYYGYDYWGQGTQVTVSS	low polyreactivity
QVQLVESGGGLVQAGGSLRLICAASGIIFTRYAMGWYRQAPGKERELVAAISTRGGSTYYADSVKGRFTISRDNAMNTVYLQMNSLKPEDTAVYYCAATNAKDGEMDYWGQGTQVTVSS	high polyreactivity
QVQLVESGGGLVQAGGSLRLSCAPSGFIFVSNAMVWYRQEPGKERELFADITSRGDSTYYADSVKGRFTISRDNAKNTVYLQMNSLKPEDTAVYYCAVDQLYFPWSFSWYGYWGQGTQVTVSS	low polyreactivity
